T1: pre-assembled IL-17RC-IL-17A complex (IL-17A captured by immobilised IL-17RC) (human, UniProt Q8NAC3 21-538; Q16552 25-155, C-terminal biotin on BirA tag)
T1 construct: One receptor and one IL-17A dimer on the SPR chip; also called existing IL-17RC-IL-17A complex
T1 sequence 1: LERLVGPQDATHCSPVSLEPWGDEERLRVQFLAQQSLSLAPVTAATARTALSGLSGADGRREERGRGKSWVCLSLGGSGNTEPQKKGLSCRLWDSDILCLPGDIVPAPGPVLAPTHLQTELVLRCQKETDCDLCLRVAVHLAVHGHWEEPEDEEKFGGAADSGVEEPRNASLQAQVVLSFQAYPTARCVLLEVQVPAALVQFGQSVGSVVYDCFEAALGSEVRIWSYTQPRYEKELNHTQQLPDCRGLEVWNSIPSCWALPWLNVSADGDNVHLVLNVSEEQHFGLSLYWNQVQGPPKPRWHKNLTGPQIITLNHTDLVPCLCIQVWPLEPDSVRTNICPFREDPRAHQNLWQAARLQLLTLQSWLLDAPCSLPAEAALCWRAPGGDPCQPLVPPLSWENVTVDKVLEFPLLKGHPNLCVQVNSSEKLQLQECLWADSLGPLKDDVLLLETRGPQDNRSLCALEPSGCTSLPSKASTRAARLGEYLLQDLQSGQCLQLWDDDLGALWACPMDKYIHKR
T1 sequence 2: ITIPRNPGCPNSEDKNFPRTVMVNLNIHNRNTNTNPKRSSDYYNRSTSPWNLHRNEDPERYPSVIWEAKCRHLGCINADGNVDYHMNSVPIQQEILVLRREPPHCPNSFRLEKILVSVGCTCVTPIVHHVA

T2: pre-assembled IL-17RB-IL-25 complex (IL-25 captured by immobilised IL-17RB) (human, UniProt Q9NRM6 18-292; Q9H293 33-177, C-terminal biotin on BirA tag)
T2 construct: One receptor and one IL-25 dimer on the SPR chip
T2 sequence 1: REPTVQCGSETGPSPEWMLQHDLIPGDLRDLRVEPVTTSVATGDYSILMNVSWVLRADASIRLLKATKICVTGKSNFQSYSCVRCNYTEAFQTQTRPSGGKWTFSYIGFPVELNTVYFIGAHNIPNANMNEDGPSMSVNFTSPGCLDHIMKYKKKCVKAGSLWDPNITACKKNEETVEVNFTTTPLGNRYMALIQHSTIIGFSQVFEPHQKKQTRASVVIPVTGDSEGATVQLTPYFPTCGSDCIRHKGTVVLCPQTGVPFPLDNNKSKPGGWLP
T2 sequence 2: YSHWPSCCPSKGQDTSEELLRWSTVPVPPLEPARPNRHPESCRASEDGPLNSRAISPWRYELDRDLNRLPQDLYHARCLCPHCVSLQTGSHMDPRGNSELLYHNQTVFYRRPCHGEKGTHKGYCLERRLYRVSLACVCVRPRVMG

T3: human IL-17RA extracellular domain (ECD) (human, UniProt Q96F46 32-317)
T3 construct: For SPR it was made with and without a C-terminal BirA ligase tag: the biotinylated form was immobilised and the other was injected; also called IL-17RA ECD; IL-17RA ectodomain
T3 sequence: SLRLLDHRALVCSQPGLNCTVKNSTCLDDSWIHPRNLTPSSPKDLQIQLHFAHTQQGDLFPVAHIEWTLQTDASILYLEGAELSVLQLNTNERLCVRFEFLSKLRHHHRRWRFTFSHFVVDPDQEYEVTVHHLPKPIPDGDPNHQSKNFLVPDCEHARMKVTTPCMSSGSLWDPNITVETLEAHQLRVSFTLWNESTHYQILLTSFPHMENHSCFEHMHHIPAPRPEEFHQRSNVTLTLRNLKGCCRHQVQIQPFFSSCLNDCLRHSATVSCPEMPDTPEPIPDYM

B1: IL-17RC extracellular domain (receptor)
chain: T1 sequence 1
notes: Expressed in 293S GnTI- cells with and without a C-terminal BirA tag; An additional C-terminal Fc tag was cleaved by 3C protease
B2: IL-17RB extracellular domain (receptor)
chain: T2 sequence 1
notes: Expressed with and without a C-terminal BirA tag
B3: IL-25 (IL-17E) (ligand)
chain: T2 sequence 2
notes: Expressed by High Five cells with a C-terminal hexa-His tag; It is treated as a dimeric cytokine in the SPR scheme; not shown: C-terminal hexa-His tag
B4: IL-17F homodimer (ligand, not shown: small tags and cut ends)
chain: RKIPKVGHTFFQKPESCPPVPGGSMKLDIGIINENQRVSMSRNIESRSTSPWNYTVTWDPNRYPSEVVQAQCRNLGCINAQGKEDISMNSVPIQQETLVVRRKHQGCSVSFQLEKVLVTVGCTCVTPVIHHVQ
notes: Printed as full length IL-17F with a C-terminal hexa-His tag, secreted by High Five insect cells; It is a disulfide-linked homodimer; also called IL-17F/F
B5: mutant single-chain IL-17A (R47E, S65K subunit - (G4S)6 linker - N89A, C-terminally truncated subunit - His tag) (designed binder)
chain: GITIPRNPGCPNSEDKNFPRTVMVNLNIHNRNTNTNPKRSSDYYNESTSPWNLHRNEDPERYPKVIWEAKCRHLGCINADGNVDYHMNSVPIQQEILVLRREPPHCPNSFRLEKILVSVGCTCVTPIVHHVASGGGGSGGGGSGGGGSGGGGSGGGGSGGGGSGITIPRNPGCPNSEDKNFPRTVMVNLNIHNRNTNTNPKRSSDYYNRSTSPWNLHRNEDPERYPSVIWEAKCRHLGCINADGNVDYHMASVPIQQEILVLRREPPHCPNSFRLEKILVSVGCTCVTPASHHHHHH
notes: also called sc17A-DN; mutant single-chain IL-17A protein

Key:
[1] = biological target: T1, pre-assembled IL-17RC-IL-17A complex …; test: SPR; second receptor injected over IL-17A captured by immobilised IL-17RC
From the text: (§1) Whilst others have reported the binding affinities of IL-17RA and IL-17RC for IL-17A and IL-17F (7, 22), we considered it pertinent to assess the binding affinity of the second receptor-binding site. The strategy was to immobilize one receptor on the SPR chip at a low coupling density in order to minimize possible homo-dimerization (e.g. cross-linking) of the receptors on the chip. The dimeric IL-17 cytokine was then captured by this receptor so that each receptor would be bound to one dimeric IL-17 ligand, leaving an exposed and accessible second receptor-binding site. The second receptor was subsequently passed over the preformed receptor-cytokine complexes to measure the affinity of the second receptor-binding event. In this fashion, the complex was assembled in a stepwise manner and each of the binding affinities was measured (FIG. 3).
(§2) Binding affinities were calculated via surface plasmon resonance (SPR) on a BIACORE® T100 (GE Healthcare). C-terminally biotinylated IL-17 receptors were coupled to immobilized streptavidin on either an SA or CM4-sensor chip (GE Healthcare). An irrelevant, biotinylated protein was captured at equivalent immobilization densities to control flow cells. […] Data was analyzed using BIACORE® T100 evaluation software Version 2.0 (GE Healthcare). […]

[2] = biological target: T2, pre-assembled IL-17RB-IL-25 complex …; test: SPR, Biacore T100; second receptor injected over IL-25 captured by immobilised IL-17RB
Procedure: (§3) IL-17RA has been implicated in IL-17E (also known as IL-25) signaling together with IL-17RB (23). IL-25 promotes Th2 inflammatory responses and shares approximately ˜20% identity with IL-17A and IL-17F. […] We hypothesized that IL-17RA may only bind IL-25 once IL-25 is captured by IL-17RB. To test this hypothesis, we immobilized IL-17RB on an SPR chip, captured IL-25 and measured the affinity of IL-17RA for the IL-17RB-IL-25 complex. […] At concentrations up to 50 μM, no interaction could be observed between IL-17RA and IL-25, or between the IL-17RB-IL-25 complex and a second IL-17RB molecule.
as §2, with “cells. To measure the second receptor binding interaction, the cytokine was first captured to the immobilized receptor, followed by the second receptor injection. Low coupling densities (200-400 RU) and excess cytokine concentrations were used to optimize the number of cytokine homodimers bound to a single receptor.” for “cells.”

[3] = biological target: T3, human IL-17RA extracellular domain (ECD); test: SPR, Biacore T100
Procedure: as §3
as §2, with “cells. To measure the second receptor binding interaction, the cytokine was first captured to the immobilized receptor, followed by the second receptor injection. Low coupling densities (200-400 RU) and excess cytokine concentrations were used to optimize the number of cytokine homodimers bound to a single receptor.” for “cells.”

[4] = biological target: T3, human IL-17RA extracellular domain (ECD); test: SPR, Biacore T100; biotinylated receptor on streptavidin chip, cytokine injected
From the text: as §1, §2

[5] = biological target: B1; test: as above
From the text: as §1, §2

[6] = biological target: T3, human IL-17RA extracellular domain (ECD); test: plate binding assay to the soluble extracellular domain of IL-17RA

Binder: B1
Kd [1]: 8000 nM

Binder: B2
binding result [2]: no binding (tested: up to 50 µM)

Binder: B3
binding result [3]: no binding (tested: up to 50 µM)

Binder: B4
Kd [4]: 292 nM | Kd [5]: 4.4 nM

Binder: B5
affinity relative to wild-type IL-17A (factor) [6]: ≤ 4 fold

Reference: patent publication US20130064788A1 (ELEVEN BIOTHERAPEUTICS, published 2013)
